Test results published in patent US20240207429A1, “LINKERS, DRUG LINKERS AND CONJUGATES THEREOF AND METHODS OF USING THE SAME” (ProfoundBio US Co., priority 2021, published 2024).

Tested on: Hela cells
Test: Flow cytometry binding to Hela cells
Format: cell-based
Conditions: transfection supernatants, FIG. 6
Procedure: The binding activity of the antibodies to Hela cells (ATCC@ CCL-2, provided by COBIOER) and to RPTEC/TERT1 cells (ATCC@ CRL-4031, provided by COBIOER) was tested by flow cytometry using the transfection supernatants. Briefly, target cells were digested with 0.02% EDTA-2Na, centrifuged at 1500 rpm for 3 mins, and resuspended with PBS. After counting, the cells were added to a 1.5 ml centrifuge tube with 1×10^6 cells per tube, centrifuged at 1500 rpm for 5 minutes, and the supernatant was discarded. Then all the operations were carried out on an ice bath. 100 μL of transfection supernatant was added to each 1.5 ml centrifuge tube. Blank cells, blank cells plus secondary antibody, medium and HEK293 supernatant were set up as the controls. The reaction was performed on an ice bath for 1 hour. Then the cells were pelleted and washed twice with PBS. The secondary antibody, goat anti-Human IgG (PE, abcam, ab98596), was diluted (1:200) and added using 100 μL per tube. The reaction was performed on an ice bath for 1 hour in the dark. The cells were pelleted again and washed twice with PBS, resuspended in 300 μL PBS, and FL2 fluorescence readings were measured by cytometry. The results were analyzed by FlowJo™10 software.
Anti-FOLR1 antibody binding to Hela and RPTEC/TERT1 cells was tested by FACS. The study was carried out as described above. […]

B1: F40: Anti-FOLR1 antibody clone: "Clone F40 has a different HCDRs and LCDRs, and with different HFR and LFR" (antibody, V domains shown)
VH: EVQLLESGGGVVQPGRSLRLSCAASGFTFSSYAMHWVRQAPGKGLEWVAVISYDGSNKYYADSVKGRFIISRDNSKNTVYLQMNSLRAEDTAVYYCARPTYVFTYTGSSFDYWGQGTQVTVSS
VL: DIQVTQSPSSLSASLGDTVSITCRASRGLTDSVAWYQQKPGQAPKLLIYAASTLQSGVPSRFGGSGSGSYFTLTITSLQPEDVATYYCQNYKSAPWTFGQGTKVEIK
- Hela cell binding: weakly positive
